Target: FLAG-HA-PTEN (UniProt P60484)
Sequence (P60484 whole entry): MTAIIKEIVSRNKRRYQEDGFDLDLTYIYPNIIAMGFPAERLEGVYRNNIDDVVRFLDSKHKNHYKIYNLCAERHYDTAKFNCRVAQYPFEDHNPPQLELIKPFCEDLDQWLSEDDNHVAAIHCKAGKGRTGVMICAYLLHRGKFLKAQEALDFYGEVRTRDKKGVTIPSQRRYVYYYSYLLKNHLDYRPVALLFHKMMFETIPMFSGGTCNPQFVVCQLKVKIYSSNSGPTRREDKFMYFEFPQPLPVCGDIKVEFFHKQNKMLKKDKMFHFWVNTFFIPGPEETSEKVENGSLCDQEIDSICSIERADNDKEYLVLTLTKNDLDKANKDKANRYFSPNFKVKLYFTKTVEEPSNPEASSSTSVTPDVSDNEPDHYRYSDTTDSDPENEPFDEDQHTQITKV

## c-src
  tyrosine phosphorylation of PTEN (Western blot with 4G10 and anti-pY240, FIG. 15): although src and lyn both phosphorylate PTEN on tyrosine, the phosphorylation of Y240 is much greater in the presence of lyn than when src is expressed with PTEN
  tyrosine phosphorylation sites on PTEN identified by mass spectrometry: We identified four sites of tyrosine phosphorylation in the PTEN phosphatase domain (Y46, Y68, Y155 and Y174) and two sites in the PTEN C2 domain (Y240 and Y315)
